Reference: patent publication US8153597B2, “Modulators of the ABC transporter family and methods for their use” (priority 2003, dated 2012)
Read-outs that look alike come from different tables or passages of the source.

Key:
[1] = tested on: CFTR-mediated Cl− secretion; assay: Ussing chamber: CFTR-mediated Cl− secretion (Isc) across polarized CFBE41o− human airway epithelial cells; type: cell-based
Procedure: These experiments were conducted in CFBE41o− cells stably expressing either wt-CFTR or ΔF508-CFTR and in parental (non-transfected ΔF508/ΔF508) CFBE41o− cells. To increase apical membrane expression of ΔF508-CFTR, cells were grown at 27° C. for 36 hours in accordance with methods set forth in Example 5. […] Parental CFBE41o− cells, and CFBE41o− cells stably expressing either wt-CFTR or ΔF508-CFTR were incubated at 27° C. in a CO2 incubator in the absence of antibiotics. Vehicle or PA14 bacteria (5×10^8 CFU/ml) were added to the apical side of the monolayers.
Monolayers grown on Transwell (6.5 mm diameter) or Snapwell (12 mm diameter) permeable supports, as described in Example 1, were mounted in an Ussing-type chamber (Jim's Instruments; Iowa City, Iowa or Physiologic Instruments; San Diego, Calif.) and bathed in solutions, pH 7.4 maintained at 37° C. and stirred by bubbling with 5% CO2/95% air. Short circuit current (Isc) was measured by voltage-clamping the transepithelial voltage across the monolayers to 0 mV with a voltage clamp (model VCC MC6, Physiologic Instruments, San Diego, Calif.). Current output from the clamp was digitized by an analog-to-digital converter (iWorx; Dover, N.H.). Data collection and analysis were done with LabScribe v1.6 Software (iWorx; Dover, N.H.). Stimulated Isc was measured after addition of 100 μM CPT-cAMP (Calu-3 and MDCK cells) or 20 μM forskolin (wt-CFTR CFBE41o− cells) to the apical and basolateral bath solution or 50 μM genistein (ΔF508-CFTR CFBE41o− cells) to the apical bath solution. Net stimulated Isc (ΔIsc) was calculated by subtracting the baseline Isc measured before stimulation from the peak Isc measured after stimulation. Glybenclamide (200 μM) was added to the apical bath solution to inhibit CFTR-mediated Isc.
CFBE41o− cells were bathed in solutions with a basolateral-to-apical Cl− gradient in the presence of amiloride (100 μM) in the apical bath solution to inhibit Na+ absorption through the epithelial Na+ channel (ENaC). […]

wt-CFTR = assay: Cell-surface biotinylation: apical membrane expression of wt-CFTR in canine (MDCK) cells; type: cell-based; conditions: purified protein
Procedure: In these experiments two human cell lines endogenously expressing CFTR, Pgp, BCRP and MRP2, and polarized canine and rat cells stably expressing wild-type (wt)-CFTR and/or Pgp, were contacted with a pelleted fraction of either P. aeruginosa strain PA14 or eight different clinical isolates. Apical membrane expression of CFTR, Pgp, and MRP2 was measured by cell-surface biotinylation. Epithelial cells were then lysed and biotinylated proteins were isolated, separated and amounts of apical membrane expression of CFTR, PgP and MRP2 were determined.
Epithelial cell cultures were grown on Transwell permeable growth supports (24 mm diameter, 0.4 μm pore size; Corning Corporation, Corning, N.Y.: #3412). Apical membrane expression of CFTR, Pgp, MRP1, BCRP and MRP2 was measured by cell-surface biotinylation as described by Lisanti, et al. (J. Cell Biol. 1989 109:2117-2127) and Swiatecka-Urban et al. J. Biol. Chem. 2002 277(42):40099-105).
MDCK cells stably expressing GFP-wt-CFTR or GFP-ΔF508-CFTR fusion proteins were established and maintained in culture in a 5% CO2/95% air incubator at 37° C. in MEM complete medium containing 50 U/ml penicillin, 50 μg/ml streptomycin, 2 mM L-glutamine, 10% FBS, and 150 μg/ml G418. Addition of GFP to the N-terminus of CFTR has no effect on CFTR localization, trafficking, function as a Cl channel, or on its degradation. MDCK cells were seeded on Transwell permeable supports (0.2×10^6 on 6.5 mm and 24 mm diameter, 0.4 μm pore size; Corning Corporation; Corning, N.Y.) and grown in culture at 37° C. for 7-10 days. Under these conditions, MDCK cells become polarized. Sodium butyrate (5 mM; Sigma-Aldrich; St. Louis, Mo.) was added to the MDCK cell culture medium 16-18 hours before experiments to stimulate CFTR expression.
In these experiments, apical membrane proteins were biotinylated at 4° C. using a derivative of biotin (EZ-Link™ Sulfo-NHS-LC-Biotin: Pierce). […] Biotinylated CFTR, Pgp, BCRP and MRP-2 were analyzed by Western blotting using antibodies against CFTR, Pgp, and MRP-2, respectively. […]

[2] = Epoxide hydrolase activity assay, degradation of (S)-NEPC; type: biochemical; conditions: purified protein; 60 minute incubation period
Procedure: To assess whether Cif acts as an epoxide hydrolase, its ability to degrade the synthetic epoxide hydrolase substrate (2S,3S)-trans-3-Phenyl-2-oxiranylmethyl 4-nitrophenyl carbonate ((S)-NEPC) was assessed. This assay measures the production of the product p-nitrophenol, which is yellow in color and absorbs maximally at 405 nm.
Purified PA2934-His was assayed for its ability to degrade the epoxide hydrolase synthetic substrate (2S,3S)-trans-3-Phenyl-2-oxiranylmethyl 4-nitrophenyl carbonate ((S)-NEPC) (Sigma, St. Louis, Mo.). […] Degradation of (S)-NEPC was measured as an increase in absorbance at OD405 utilizing a Molecular Devices SpectraMax M2 plate reader. Reactions were normalized to controls lacking enzyme, accounting for spontaneous hydrolysis of the substrate.

MDCK-GFP-MDR1 cells = type: cell-based, canine; conditions: pre-treatment 60 min, then Dox (0, 1, 3, 5 or 10 μM) for 4 hrs at 37 C; buffer ˜5%
Excerpt: The studies above indicate that CIF reduces the plasma membrane expression of P-glycoprotein (i.e. Pgp or multidrug resistance protein (MDR)), MRP2, BCRP and other members of the ABC transmembrane protein family, whose functions include the transport of small molecules across cell membranes. More specifically, members of the ABC transporter family function by preventing therapeutics including but not limited to anti-cancer therapies and antibiotics from accumulating in the central nervous system, and by conferring the observed “drug resistance” of numerous cancers. […]
MDCK-GFP-MDR1 cells, MDCK-C7 cells stably transfected with GFP-Pgp under the transcriptional control of human MDR1 promoter as described by Maitra et al. (Biochem J 2001 355:617-624) were used in these studies. […] Cell viability was then assessed using the CellTiter 96Queous One Solution Cell Proliferation assay. After incubating for 4 hours at 37° C., the absorbance was determined at 490 nm.

| Molecule | inhibition of forskolin stimulated CFTR-mediated Cl− ion secretion [1] | inhibition of forskolin stimulated CFTR-mediated Cl− ion secretion ([1]; WT-CFBE cells, added to apical face, 50 μg PA2934-His, CFTRinh-172 5 μM) | reduction of CFTR Cl− currents ([1]; WT-CFBE cells, relative to CFTRinh-172-sensitive current) | effect on apical expression of CFTR (wt-CFTR) | reduction of apical expression of CFTR (wt-CFTR; 60 minutes after treatment) | reduction of apical expression of CFTR (wt-CFTR; at 90 minutes) | epoxide hydrolase activity (degradation of (S)-NEPC, absorbance at 405 nm) [2] | reduction in cell viability (MDCK-GFP-MDR1 cells) |
| --- | --- | --- | --- | --- | --- | --- | --- | --- |
| O=C(O)c1ccc(/C=C2\SC(=S)N(c3cccc(C(F)(F)F)c3)C2=O)cc1 [CFTRinh-172, reference compound] | ~50 μA/cm^2 | – | – | – | – | – | – | – |
| PA2934-His: purified C-terminal penta-histidine tagged PA2934 (Cif, CFTR inhibitory factor; SEQ ID NO:1) expressed in E. coli (protein, listed as Pseudomonas aeruginosa, C-terminal penta-His tag) MILDRLCRGLLAGIALTFSLGGFAAEEFPVPNGFESAYREVDGVKLHYVKGGQGPLVMLVHGFGQTWYEWHQLMPELAKRFTVIAPDLPGLGQSEPPKTGYSGEQVAVYLHKLARQFSPDRPFDLVAHDIGIWNTYPMVVKNQADIARLVYMEAPIPDARIYRFPAFTAQGESLVWHFSFFAADDRLAETLIAGKERFFLEHFIKSHSSNTEVFSERLLDLYARSYAKPHSLNASFEYYRALNESVRQNAELAKTRLQMPTMTLAGGGHGGMGTFQLEQMKAYADDVEGHVLPGCGHWLPEECAAPMNRLVIDFLSRGR | – | ~30 μA/cm^2 | approximately 60% | significantly decreases | > 60% | > 70% | capable of degrading this compound in a protein concentration dependent manner | ~25% |
